Measurements reported in publication PMC4807222.

Legend:
[1] = biological target: V5-Myc, murine c-Myc mutant 20-PAAA (murine) (UniProt P01108); experiment: co-IP
[2] = biological target: V5-Myc, murine c-Myc mutant 20-AAAI (murine) (UniProt P01108); experiment: co-IP
[3] = biological target: V5-Myc, murine c-Myc mutant 20-PAAI (murine) (UniProt P01108); experiment: co-IP
[4] = biological target: c-Myc_(1–88) c-Myc-20-PYFY/AAAA-23 mutant (human) (UniProt P01106); experiment: SPR

Sequence of Flag-tagged Pin1 (co-immunoprecipitation) (Q13526 whole entry): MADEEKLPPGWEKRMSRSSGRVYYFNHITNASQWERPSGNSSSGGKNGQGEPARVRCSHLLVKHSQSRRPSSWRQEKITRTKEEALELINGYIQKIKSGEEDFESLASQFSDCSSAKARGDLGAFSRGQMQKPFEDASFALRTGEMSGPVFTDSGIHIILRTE
Sequence of V5-Myc, murine c-Myc mutant 20-PAAI (murine) (P01108 whole entry, change not shown): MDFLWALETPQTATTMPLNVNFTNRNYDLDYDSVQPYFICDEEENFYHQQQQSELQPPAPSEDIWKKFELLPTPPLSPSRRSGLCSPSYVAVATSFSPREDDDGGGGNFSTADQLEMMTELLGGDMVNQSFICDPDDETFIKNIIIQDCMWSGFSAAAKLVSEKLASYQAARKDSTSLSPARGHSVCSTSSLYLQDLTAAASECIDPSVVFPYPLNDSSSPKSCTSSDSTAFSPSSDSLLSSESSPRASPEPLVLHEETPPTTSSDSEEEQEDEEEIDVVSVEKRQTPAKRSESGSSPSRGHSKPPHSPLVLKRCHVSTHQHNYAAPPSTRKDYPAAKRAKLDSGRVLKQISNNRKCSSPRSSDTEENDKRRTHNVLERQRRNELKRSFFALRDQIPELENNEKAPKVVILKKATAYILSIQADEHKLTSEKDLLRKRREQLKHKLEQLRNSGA
Sequence of V5-Myc, murine c-Myc mutant 20-AAAI (murine) (P01108 whole entry, change not shown): as above
Sequence of V5-Myc, murine c-Myc mutant 20-PAAA (murine) (P01108 whole entry, change not shown): as above
Sequence of full-length Pin1 (1–163) (Q13526 whole entry): as the sequence (Q13526 whole entry) above

percent reduction of co-immunoprecipitated Pin1 against wild type [1] [%]	percent reduction of co-immunoprecipitated Pin1 against wild type [2] [%]	percent reduction of co-immunoprecipitated Pin1 against wild type [3] [%]	Kd [4] [µM]	Substance
> 50	> 50	> 50	–	Flag-tagged Pin1 (co-immunoprecipitation) (from UniProt Q13526 1-163) (enzyme)
–	–	–	15	full-length Pin1 (1–163) (from UniProt Q13526 1-163) (enzyme)
